The nature of the data set: self-splicing fitness, log relative to wild type (ln ratio); higher = more splicing; Tetrahymena group I intron in knt gene, E. coli kanamycin selection, DiMSum; sequences stand for … in CUCUCU…GGAGGGAAAAGUUAUCAGGCAUGCACCUGGUAGCUAGUCUUUAAACCAAUAGAUUGCAUCGGUUUAAAAGGCAAGACCGUCAAAUUGCGGGAAAGGGGUCAACAGCCGUUCAGUACCAAGUCUCAGGGGAAACUUUGAGAUGGCCUUGCAAAGGGUAUGGUAAUAAGCUGACGGACAUGGUCCUAACCACGCAGCCAAGUCCUAAGUCAACAGAUCUUCUGUUGAUAUGGAUGCAGUUCACAGACUAAAUGUCGGUCGGGGAAGAUGUAUUCUUCUCAUAAGAUAUAGUCGGACCUCUCCUUAAUGGGAGCUAGCGGAUGAAGUGAUGCAACACUGGAGCCGCUGGGAACUAAUUUGUAUGCGAAAGUAUAUUGAUUAGUUUUGGAGUACUCGUGGUCG
Put shortly: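 The eight P1ex-region nucleotides of an intron in the knt kanamycin-resistance gene on pET-22b(+) were all randomised and the library put into E. coli BL21(DE3). Six replicate transformations were grown overnight at 37°C or 30°C on LB agar with or without 25 μg/mL kanamycin, together with 100 μg/mL carbenicillin, 50 μM IPTG and 0.2% rhamnose. Colonies were pooled and amplicon-sequenced on an Illumina HiSeq 2500. Fitness from DiMSum is the error-weighted combination of wild-type-normalised replicate fold changes, kanamycin over none.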

± gives the uncertainty stated by the source.

In the case of UAGGAGCAAUAUUACGAAAU, the “self-splicing fitness (ln)” value is, setting by setting: (30 °C) -2.12 ± 0.28; (37 °C) -2.31 ± 0.42.
Regarding AAGUAGCAAUAUUACGCAGU, the “self-splicing fitness (ln)” value (37 °C) was -1.76 ± 0.19.
For CGCUAGCAAUAUUACGUGAU, the “self-splicing fitness (ln)” value is, setting by setting: (30 °C) -2.34 ± 0.12; (37 °C) -3.44 ± 0.25.
On to CGUCAGCAAUAUUACGAAGC, for which the “self-splicing fitness (ln)” value (37 °C) is -2.3 ± 0.5.
Turning to AGCCAGCAAUAUUACGAGUG, the “self-splicing fitness (ln)” value is, setting by setting: (30 °C) -3.63 ± 0.2; (37 °C) -2.13 ± 0.14.
Take GACUAGCAAUAUUACGAUUG: the “self-splicing fitness (ln)” value is -2.2 ± 0.087 (30 °C) and -2.14 ± 0.15 (37 °C).
The like results for CCAGAGCAAUAUUACGCUAG were, in that order, -3.84 ± 0.29 and -2.38 ± 0.28.
On to GCCAAGCAAUAUUACGCGGA, for which the “self-splicing fitness (ln)” value (30 °C) was -1.1 ± 0.099 and the “self-splicing fitness (ln)” value (37 °C) is -0.277 ± 0.11.
The corresponding values for GGAAAGCAAUAUUACGGCUA are -0.34 ± 0.2 and -0.931 ± 0.18.
The like results for GUCUAGCAAUAUUACGCUAC were, in that order, -2.41 ± 0.47 and -2.57 ± 0.33.
The corresponding values for CCGCAGCAAUAUUACGUAUC are -4.05 ± 0.28 and -1.91 ± 0.2.
Consider CUCUAGCAAUAUUACGAGGA, for which the “self-splicing fitness (ln)” value reads like this: (30 °C) -2.32 ± 0.19; (37 °C) -1.59 ± 0.17.
For GUGUAGCAAUAUUACGCCAA, the “self-splicing fitness (ln)” value (37 °C) was -1.85 ± 0.34.
On to UACAAGCAAUAUUACGACAU, for which the “self-splicing fitness (ln)” value (30 °C) is -1.474 ± 0.012 and the “self-splicing fitness (ln)” value (37 °C) was -0.59 ± 0.032.
Consider GAGGAGCAAUAUUACGCACG, for which the “self-splicing fitness (ln)” value (37 °C) was -0.155 ± 0.47.
AAGAAGCAAUAUUACGGCAA: the “self-splicing fitness (ln)” value by setting is: (30 °C) -0.128 ± 0.096; (37 °C) -0.201 ± 0.13.
The corresponding values for GUCCAGCAAUAUUACGGCGC are -0.166 ± 0.15 and 0.208 ± 0.22.
The like results for CCGCAGCAAUAUUACGAUUU were, in that order, -3.28 ± 0.14 and -2.22 ± 0.15.
For CCCGAGCAAUAUUACGAUGC, the “self-splicing fitness (ln)” value was -4.29 ± 0.46 (30 °C) and -2.52 ± 0.38 (37 °C).
For the sequence CACAAGCAAUAUUACGUGGU, the “self-splicing fitness (ln)” value (30 °C) is -4.1 ± 0.17 and the “self-splicing fitness (ln)” value (37 °C) was -2.66 ± 0.19.
The like results for ACUUAGCAAUAUUACGCCUU were, in that order, -0.353 ± 0.095 and -0.14 ± 0.11.
As for GAACAGCAAUAUUACGUUUU, the “self-splicing fitness (ln)” value was -3.06 ± 0.083 (30 °C) and -2.25 ± 0.11 (37 °C).
The like results for ACGUAGCAAUAUUACGGGGU were, in that order, -4.31 ± 0.3 and -2.51 ± 0.18.
The like results for GCUCAGCAAUAUUACGUUUC were, in that order, -0.455 ± 0.065 and -0.0579 ± 0.091.
Take GAGUAGCAAUAUUACGUGUU: the “self-splicing fitness (ln)” value was -3.05 ± 0.12 (30 °C) and -1.12 ± 0.1 (37 °C).
As to UCUCAGCAAUAUUACGAAAU, for the setting “37 °C”, the “self-splicing fitness (ln)” value is -2.86 ± 0.32.
For the sequence AACCAGCAAUAUUACGCGGA, the “self-splicing fitness (ln)” value (30 °C) is -2.05 ± 0.093 and the “self-splicing fitness (ln)” value (37 °C) is -0.49 ± 0.072.
For UUGAAGCAAUAUUACGUCUA, the “self-splicing fitness (ln)” value runs as follows: (30 °C) 0.0429 ± 0.11; (37 °C) 0.627 ± 0.12.
The like results for UGGUAGCAAUAUUACGAUUA were, in that order, -0.395 ± 0.055 and 0.0463 ± 0.066.
The corresponding values for AUUGAGCAAUAUUACGAUGU are -2.26 ± 0.11 and -1.41 ± 0.16.
The like results for AGACAGCAAUAUUACGUCCU were, in that order, -0.567 ± 0.052 and -0.257 ± 0.066.
As for GUCCAGCAAUAUUACGAGAA, the “self-splicing fitness (ln)” value (30 °C) is -0.724 ± 0.14 and the “self-splicing fitness (ln)” value (37 °C) was -0.763 ± 0.14.
On to AGCCAGCAAUAUUACGAAUG, for which the “self-splicing fitness (ln)” value (37 °C) was -2.45 ± 0.28.
As to CACAAGCAAUAUUACGAACA, the “self-splicing fitness (ln)” value runs as follows: (30 °C) -2.61 ± 0.18; (37 °C) -1.72 ± 0.12.
The corresponding values for CGAUAGCAAUAUUACGGGAG are -2.86 ± 0.24 and -2.39 ± 0.24.
The like results for UGAAAGCAAUAUUACGAUCU were, in that order, -0.256 ± 0.083 and 0.425 ± 0.11.
The corresponding values for CAUUAGCAAUAUUACGUUUG are -2.16 ± 0.1 and -1.51 ± 0.13.
On to CGGUAGCAAUAUUACGCGUC, for which the “self-splicing fitness (ln)” value (37 °C) was -1.81 ± 0.39.
As for AAUCAGCAAUAUUACGGGAU, the “self-splicing fitness (ln)” value (30 °C) is -1.45 ± 0.08 and the “self-splicing fitness (ln)” value (37 °C) is -1.34 ± 0.087.
As for UUCGAGCAAUAUUACGAAGU, where the note is “37 °C”, the “self-splicing fitness (ln)” value was -1.57 ± 0.32.
Regarding ACCCAGCAAUAUUACGAAGU, the “self-splicing fitness (ln)” value is, setting by setting: (30 °C) -0.678 ± 0.058; (37 °C) 0.183 ± 0.074.
Consider GAGGAGCAAUAUUACGAGAU, for which the “self-splicing fitness (ln)” value (30 °C) is -2.78 ± 0.32.
In the case of GCCGAGCAAUAUUACGCCAU, the “self-splicing fitness (ln)” value (30 °C) was -2.88 ± 0.23 and the “self-splicing fitness (ln)” value (37 °C) was -2.5 ± 0.38.
The like results for GCCAAGCAAUAUUACGUAGU were, in that order, -0.579 ± 0.051 and -0.395 ± 0.06.
The corresponding values for GAACAGCAAUAUUACGGAAC are -1.44 ± 0.1 and -1.55 ± 0.13.
For the sequence UCUCAGCAAUAUUACGUUGC, the “self-splicing fitness (ln)” value (37 °C) is -2.73 ± 0.23.
For the sequence AAAUAGCAAUAUUACGGGGA, the “self-splicing fitness (ln)” value is, setting by setting: (30 °C) -3.71 ± 0.25; (37 °C) -2.86 ± 0.19.
As for AGCUAGCAAUAUUACGUCAC, the “self-splicing fitness (ln)” value (37 °C) was -2.69 ± 0.29.
CAACAGCAAUAUUACGAAUG: the “self-splicing fitness (ln)” value (30 °C) was -1.04 ± 0.058 and the “self-splicing fitness (ln)” value (37 °C) was -0.229 ± 0.074.
The corresponding values for UCUAAGCAAUAUUACGGUUU are -3.21 ± 0.43 and -2.56 ± 0.31.
The like results for CUCCAGCAAUAUUACGGCAC were, in that order, -3.68 ± 0.23 and -3.27 ± 0.47.
The corresponding values for CUCGAGCAAUAUUACGCGCG are -2.81 ± 0.27 and -1.48 ± 0.32.
UCAGAGCAAUAUUACGUCGU: the “self-splicing fitness (ln)” value is -2.89 ± 0.24 (30 °C) and -0.54 ± 0.24 (37 °C).
The corresponding values for CAGGAGCAAUAUUACGGGGA are -5.01 ± 0.38 and -3.47 ± 0.37.
The like results for CCAGAGCAAUAUUACGCGUG were, in that order, -0.704 ± 0.069 and -0.93 ± 0.095.
The like results for UCGUAGCAAUAUUACGCUGG were, in that order, -3.09 ± 0.15 and -1.88 ± 0.15.
With UUUAAGCAAUAUUACGCGCA, the “self-splicing fitness (ln)” value is -0.212 ± 0.11 (30 °C) and 0.0171 ± 0.15 (37 °C).
The corresponding values for GUGUAGCAAUAUUACGUACU are -1.52 ± 0.095 and -1.19 ± 0.14.
The corresponding values for UGCGAGCAAUAUUACGUAAA are -2.8 ± 0.1 and -1.77 ± 0.18.
The like results for AAGAAGCAAUAUUACGUGUG were, in that order, -2.3 ± 0.09 and -0.663 ± 0.081.
CAUAAGCAAUAUUACGUUUG: the “self-splicing fitness (ln)” value (30 °C) was -3.3 ± 0.17 and the “self-splicing fitness (ln)” value (37 °C) is -2.46 ± 0.18.
For the sequence UCCGAGCAAUAUUACGAAAC, the “self-splicing fitness (ln)” value was -2.59 ± 0.27 (30 °C) and -1.62 ± 0.28 (37 °C).
CCUCAGCAAUAUUACGUGUA: the “self-splicing fitness (ln)” value (30 °C) is -2.19 ± 0.13 and the “self-splicing fitness (ln)” value (37 °C) is -2.16 ± 0.15.
On to GCGCAGCAAUAUUACGAGGG, for which the “self-splicing fitness (ln)” value (30 °C) is -2.78 ± 0.09 and the “self-splicing fitness (ln)” value (37 °C) is -1.84 ± 0.098.

The values are drawn from the supplement of paper PMC7877785.
